Laboratory results: article PMC8434428

Molecular target: Aca2 (anti-CRISPR associated protein 2) from Pectobacterium carotovorum bacteriophage ZF40 (Pectobacterium carotovorum bacteriophage ZF40)
Experiment: SEC; final size exclusion run of untagged Aca2 on HiPrep 16/60 Sephacryl S-200 in buffer S [50 mM Tris-HCl (pH 7.9), 500 mM KCl, 10% glycerol]; oligomer judged from the elution volume

## Aca2 (anti-CRISPR associated protein 2) from Pectobacterium carotovorum bacteriophage ZF40 (natural protein)
  stoichiometry N: 2
